T1: His6-Ras1.G17V (1-172), GTP-loaded (fission yeast (Schizosaccharomyces …, UniProt P08647 1-172, G17V))
T1 construct: Loaded with GTP by EDTA-mediated exchange (8 mM GTP, 12 mM EDTA, 37 C, 10 min; stopped with 20.5 mM MgCl2) just before the pull-down; Cloned in vector pLEICS1; also called Ras1.G17V^GTP; source: E. coli BL21 Rosetta, purified (Ni Sepharose 6 Fast Flow), dialysed, loaded with GTP
T1 sequence (looked up): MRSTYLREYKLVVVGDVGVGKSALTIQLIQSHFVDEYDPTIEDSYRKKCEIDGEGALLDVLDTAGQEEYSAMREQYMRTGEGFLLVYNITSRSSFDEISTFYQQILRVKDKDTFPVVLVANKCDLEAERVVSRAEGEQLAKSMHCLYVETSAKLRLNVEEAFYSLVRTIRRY

B1: GST-Byr2 (65-180) (domain or fragment, UniProt P28829 65-180, looked up)
chain: REFPRPCILRFIACNGQTRAVQSRGDYQKTLAIALKKFSLEDASKFIVCVSQSSRIKLITEEEFKQICFNSSSPERDRLIIVPKEKPCPSFEDLRRSWEIELAQPAALSSQSSLSP
notes: Cloned in vector pLEICS4; also called GST-Byr2-RBD; Byr2-RBD; source: E. coli BL21 Rosetta, purified on glutathione sepharose 4B (kept on the beads); not shown: GST, N-terminal, kept
B2: GST-Scd1 (760-872) (domain or fragment, UniProt P40995 760-872, looked up)
chain: SSSTSTSLSVRNTTNVKIRLRLHEVSLVLVVAHDITFDELLAKVEHKIKLCGILKQAVPFRVRLKYVDEDGDFITITSDEDVLMAFETCTFELMDPVHNKGMDTVSLHVVVYF
notes: Cloned in vector pLEICS4; also called GST-Scd1-PB1; Scd1-PB1; source: E. coli BL21 Rosetta, purified on glutathione sepharose 4B (kept on the beads); not shown: GST, N-terminal, kept
B3: Scd1 (760-872) fragment (domain or fragment, UniProt P40995 760-872, looked up)
chain: B2 chain
notes: also called Scd1-PB1 (cleaved from GST); not shown: GST, N-terminal, cleaved

Experiments:
[1] = target: T1, His6-Ras1.G17V (1-172), GTP-loaded; assay: pull-down; GST fusion on glutathione sepharose beads incubated with GTP-loaded Ras1.G17V (1-172) in buffer A (20 mM Tris-Cl pH 7.5, 100 mM NaCl, 5 mM MgCl2, 1 mM beta-mercaptoethanol), 4 C, 30 min; bound fraction on SDS-PAGE, InstantBlue stain; settings: both partners purified
[2] = target: T1, His6-Ras1.G17V (1-172), GTP-loaded; assay: pull-down; competition: GST-Byr2 (65-180) on glutathione beads incubated with GTP-loaded Ras1.G17V (1-172) with or without Scd1 (760-872) fragment, buffer A, 4 C, 30 min; Ras1.G17V band on SDS-PAGE quantified with Fiji; settings: both partners purified

Row | Binder | binding result [1] | binding result [2]
1 | B1 | binds | –
2 | B2 | binds | –
3 | B3 | – | binds

Source: doi:10.1101/2025.03.06.641927, “Constitutively active RAS prolongs Cdc42 signalling while attenuating MAPK signalling during fission yeast mating” (bioRxiv, 2025)
